T1: Human PF4 (CXCL4), biotinylated, without heparin (human, UniProt P02776 32-101, biotinylated with EZ-link-Sulfo-NHS-LC-Biotin (sites not given))
T1 construct: Immobilised on streptavidin biosensors for BLI; also called PF4 alone; platelet factor 4
T1 sequence: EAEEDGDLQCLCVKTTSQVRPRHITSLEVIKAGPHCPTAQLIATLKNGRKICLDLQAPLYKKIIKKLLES

T2: PF4/heparin complex (human PF4 complexed with heparin) (human, UniProt P02776 32-101)
T2 construct: Multimeric complex of PF4 with heparin (not a protein); In the EIAs: PF4 captured on biotinylated heparin on streptavidin plates; In the SRA: platelets with 0.2 U/mL heparin; also called PF4 and heparin complexes
T2 sequence: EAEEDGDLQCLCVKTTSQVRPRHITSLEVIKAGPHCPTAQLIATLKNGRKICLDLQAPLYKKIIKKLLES


How the values were obtained:
[1] = target: T1, Human PF4 (CXCL4), biotinylated, …; assay: BLI (Octet), biotinylated PF4 without heparin on streptavidin sensors, scFv at 1 µg/mL, 1:1 model, mean ± s.d. [cont.) b]
Method: BLI experiments were performed using wildtype scFv, mutant B, mutant C, mutant D, mutant E, and mutant F at 1 μg/mL. Binding was measured against immobilized biotinylated PF4 on streptavidin biosensors. b) Table showing kinetic data of wildtype and mutant scFv, including binding responses and association and dissociation rates. All data was analyzed based on a 1:1 homogenous ligand binding model using Octet® User Software version 3.1.
(§1) The Octet-QK Red 96 (FortéBio, Menlo Park, CA) instrumentation was used to conduct all BLI experiments. A 96-well microtiter plate (black, flat-bottom) was used to hold 200 μL per well of either sample or buffer. Pre-coated streptavidin biosensor tips (FortéBio) were hydrated in phosphate buffered saline (PBS) containing 1% bovine serum albumin (BSA, Sigma-Aldrich) before performing all kinetic assays. Each step was performed at an operating temperature of 23° C. with agitation at 1000 rpm. Streptavidin tips were first equilibrated in PBS+1% BSA to establish a baseline. […] The PF4-coated tips were then dipped into PBS+1% BSA for 13 minutes to re-establish a baseline. Tips were then incubated in an analyte solution containing half-fold dilutions of wildtype scFv (4.0, 2.0, 1.0, 0.5, 0.25 μg/mL in PBS+1% BSA) for 10 minutes to measure association. For mutant scFv association, tips were incubated in an analyte solution containing 200 μL of each mutant and wildtype scFv at a final concentration of 1 μg/mL in PBS+1% BSA. Antibody dissociation steps were performed by dipping sensors in wells containing PBS+1% BSA for 56 minutes. The following negative controls included in these kinetic experiments were also measured: 200 μL of buffer to replace both the antigen and scFv and 200 μL buffer replacing scFv only. Each experiment was performed with PF4 or with PF4/heparin as the immobilized antigen.
BLI experiments were performed to evaluate binding responses and affinities of wildtype and mutant scFv. Biotinylated PF4 alone or complexed with heparin was immobilized on streptavidin biosensors and used to capture wildtype scFv.

[2] = target: T2, PF4/heparin complex (human PF4 …); assay: competition EIA, scFv 50 µg/mL; competitor HIT-positive sera antibodies, n=10
Method: (§2) Inhibitory PF4/heparin IgG-specific Streptavidin Enzyme Immunoassay (EIA). The binding activity of wildtype and mutant scFv antibodies to PF4/heparin complexes was measured using an inhibitory PF4/heparin IgG-specific EIA with a streptavidin-biotin capture system. Before performing this protocol, 96-well NUNC Maxisorp plates (ThermoFisher) were coated with 10 μg/mL streptavidin for 24 h. Plates were then blocked with 3% bovine serum albumin (BSA) in phosphate buffered saline (PBS) for 2 h at room temperature. Plates were then coated with 1 U/mL biotinylated-heparin for 1 h followed by 30 μg/mL PF4 for 1 h. Increasing concentrations of wildtype or mutant scFv were added and incubated for 1 hr at room temperature. Without removing wildtype or scFv, HIT patient sera in a 1:50 dilution or full-length KKO (2 μg/mL) was then incubated for 1 h at room temperature. After washing, alkaline phosphatase-conjugated anti-human or anti-mouse IgG (Jackson Immuno Research Laboratories, Inc., West Grove, PA) was added at a 1:4000 dilution and incubated for 1 h temperature. For detection, 1 mg/mL p-nitrophenylphosphate (PNPP, Sigma-Aldrich) substrate dissolved in 1 mol/L diethanolamine (DEA) buffer (pH 9.6) was added. The optical density (OD) was measured at 2 min intervals for 30 min at 405 nm (OD₄₀₅ₙₘ) using a BioTek 800 TS plate reader (BioTek Instruments Inc., Winooski, VT) to determine if anti-PF4/heparin antibody binding was inhibited. Results were reported as a decrease in OD (absorbance at 405 nm) from baseline levels.
Inhibiting HIT-Positive (EIA+/SRA+) HIT-Negative (EIA+/SRA−) antibody binding: Sera (n=10) from confirmed HIT-positive patients (EIA-positive/SRA-positive) containing anti-PF4/heparin antibodies were used in a modified streptavidin-biotin based anti-PF4/heparin IgG EIA (streptavidin anti-PF4/hep EIA) with scFv at 50 μg/mL. On average, antibody binding to PF4/heparin was reduced in the presence of scFv.

[3] = target: T2, PF4/heparin complex (human PF4 …); assay: competition EIA, scFv 50 µg/mL; competitor HIT-negative sera antibodies, n=10
Method: as §2
Sera (n=10) from confirmed HIT-negative patients (EIA-positive/SRA-negative) containing anti-PF4/heparin antibodies were then used in the same EIA with scFv constructs to determine if antibody binding was decreased in this cohort (Table 5).

[4] = target: T1, Human PF4 (CXCL4), biotinylated, …; assay: BLI (Octet), biotinylated PF4 without heparin on streptavidin sensors, scFv 1 µg/mL, 1:1 model
Method: as §1
BLI experiments were performed to evaluate binding responses and affinities of wildtype and mutant scFv. Biotinylated PF4 alone or complexed with heparin was immobilized on streptavidin biosensors and used to capture wildtype scFv. Half-fold serial dilutions of wildtype scFv ranging from 0.25 μg/mL to 4 μg/mL were used to determine the optimal concentrations for future experiments PF4 (PF4 FIG. 3; PF4/heparin FIG. 4).

[5] = target: T2, PF4/heparin complex (human PF4 …); assay: cell-based or functional assay

Row | Binder | koff [1] [s⁻¹] | kon [1] [M⁻¹ s⁻¹] | mean OD405nm of bound serum IgG (+ scFv) [2] [OD405nm] | mean OD405nm of bound serum IgG (+ scFv) [3] [OD405nm] | Kd [4] [nM] | fold change of KD against wildtype scFv [4] [fold] | % inhibition of 14C-serotonin release (SRA), HIT-Positive Patient #1 serum, scFv 50 µg/mL [5] [%] | % inhibition of 14C-serotonin release (SRA), HIT-Positive Patient #1 serum, scFv 75 µg/mL [5] [%] | % inhibition of 14C-serotonin release (SRA), HIT-Positive Patient #2 serum, scFv 50 µg/mL [5] [%] | % inhibition of 14C-serotonin release (SRA), HIT-Positive Patient #2 serum, scFv 75 µg/mL [5] [%] | % inhibition of 14C-serotonin release (SRA), HIT-Positive Patient #3 serum, scFv 50 µg/mL [5] [%] | % inhibition of 14C-serotonin release (SRA), HIT-Positive Patient #3 serum, scFv 75 µg/mL [5] [%] | % inhibition of 14C-serotonin release (SRA), HIT-Positive Patient #4 serum, scFv 50 µg/mL [5] [%] | % inhibition of 14C-serotonin release (SRA), HIT-Positive Patient #4 serum, scFv 75 µg/mL [5] [%] | % inhibition of 14C-serotonin release (SRA), HIT-Positive Patient #5 serum, scFv 50 µg/mL [5] [%] | % inhibition of 14C-serotonin release (SRA), HIT-Positive Patient #5 serum, scFv 75 µg/mL [5] [%] | fold stronger affinity than wildtype scFv [4] [fold]
1 | Mutant B scFv, scFv(R18K, N152K, D180N) (scFv, VL-linker-VH; histidine-tagged, from E. coli BL21; also called Mut B; not shown: histidine tag from the pADL-22c vector) scFv: DIQMIQSQKFMSTSVGDKVTVTCKASQNVGTNVAWYQQKPGQSPNALIYSASYRYSGVPDRFTGSGSGTDFTLTITNVQSEDLADYFCQQYNSYPLTFGTGTKLDLKGGGGSGGGGSGGGGSVQLQQSGAELVKPGASVKLSCKASGYTFTKYFIYWVKQRPGQGLEWIGEINPRNGDTNFNEKFESRATLTVDKSSSTAYMQLSSLTSEDSAIYYCTRSPYGNNYGFTYWGQGTLVTVSA | 5.07e-05 | 30200 | 0.275 | 1.1 | 1.69 | 1000 | 71.1 | 97.8 | 71.8 | 19.2 | 6 | 14.5 | 7.8 | 58.9 | 90.3 | 80.6 | –
2 | Mutant D scFv, scFv(Y156H) (scFv, VL-linker-VH; histidine-tagged, from E. coli BL21; also called Mut D; not shown: histidine tag from the pADL-22c vector) scFv: DIQMIQSQKFMSTSVGDRVTVTCKASQNVGTNVAWYQQKPGQSPNALIYSASYRYSGVPDRFTGSGSGTDFTLTITNVQSEDLADYFCQQYNSYPLTFGTGTKLDLKGGGGSGGGGSGGGGSVQLQQSGAELVKPGASVKLSCKASGYTFTNYFIHWVKQRPGQGLEWIGEINPRNGDTDFNEKFESRATLTVDKSSSTAYMQLSSLTSEDSAIYYCTRSPYGNNYGFTYWGQGTLVTVSA | 0.000103 | 25700 | 0.283 | 1 | 5.83 | – | 42.2 | 94.4 | 12.8 | 16.7 | 10.8 | 36.1 | 20 | 38.9 | 69.4 | 87.5 | 1000

Continued, values first:

Row | koff [1] [s⁻¹] | kon [1] [M⁻¹ s⁻¹] | mean OD405nm of bound serum IgG (+ scFv) [2] [OD405nm] | mean OD405nm of bound serum IgG (+ scFv) [3] [OD405nm] | Kd [4] [nM] | fold change of KD against wildtype scFv [4] [fold] | % inhibition of 14C-serotonin release (SRA), HIT-Positive Patient #1 serum, scFv 50 µg/mL [5] [%] | % inhibition of 14C-serotonin release (SRA), HIT-Positive Patient #1 serum, scFv 75 µg/mL [5] [%] | % inhibition of 14C-serotonin release (SRA), HIT-Positive Patient #2 serum, scFv 50 µg/mL [5] [%] | % inhibition of 14C-serotonin release (SRA), HIT-Positive Patient #2 serum, scFv 75 µg/mL [5] [%] | % inhibition of 14C-serotonin release (SRA), HIT-Positive Patient #3 serum, scFv 50 µg/mL [5] [%] | % inhibition of 14C-serotonin release (SRA), HIT-Positive Patient #3 serum, scFv 75 µg/mL [5] [%] | % inhibition of 14C-serotonin release (SRA), HIT-Positive Patient #4 serum, scFv 50 µg/mL [5] [%] | % inhibition of 14C-serotonin release (SRA), HIT-Positive Patient #4 serum, scFv 75 µg/mL [5] [%] | % inhibition of 14C-serotonin release (SRA), HIT-Positive Patient #5 serum, scFv 50 µg/mL [5] [%] | % inhibition of 14C-serotonin release (SRA), HIT-Positive Patient #5 serum, scFv 75 µg/mL [5] [%] | fold stronger affinity than wildtype scFv [4] [fold] | Binder
3 | 2.52e-05 | 42200 | 0.281 | 1.19 | 0.607 | – | 97.8 | – | 21.8 | – | 50.6 | – | 50 | – | 90.3 | – | – | Mutant F scFv, scFv(E183V, E186K, G223R) (scFv, VL-linker-VH; histidine-tagged, from E. coli BL21; also called Mut F; not shown: histidine tag from the pADL-22c vector) scFv: DIQMIQSQKFMSTSVGDRVTVTCKASQNVGTNVAWYQQKPGQSPNALIYSASYRYSGVPDRFTGSGSGTDFTLTITNVQSEDLADYFCQQYNSYPLTFGTGTKLDLKGGGGSGGGGSGGGGSVQLQQSGAELVKPGASVKLSCKASGYTFTNYFIYWVKQRPGQGLEWIGEINPRNGDTDFNVKFKSRATLTVDKSSSTAYMQLSSLTSEDSAIYYCTRSPYRNNYGFTYWGQGTLVTVSA
4 | 0.000124 | 69300 | 0.319 | 1.08 | 0.954 | – | 14.4 | 25.6 | 9 | 10.3 | 14.5 | 9.6 | 6.7 | 4.4 | 47.2 | 59.7 | 10000 | Mutant E scFv, scFv(Y156H, D180G, Q233P) (scFv, VL-linker-VH; histidine-tagged, from E. coli BL21; also called Mut E; not shown: histidine tag from the pADL-22c vector) scFv: DIQMIQSQKFMSTSVGDRVTVTCKASQNVGTNVAWYQQKPGQSPNALIYSASYRYSGVPDRFTGSGSGTDFTLTITNVQSEDLADYFCQQYNSYPLTFGTGTKLDLKGGGGSGGGGSGGGGSVQLQQSGAELVKPGASVKLSCKASGYTFTNYFIHWVKQRPGQGLEWIGEINPKNGDTGFNEKFESRATLTVDKSSSTAYMQLSSLTSEDSAIYYCTRSPYGNNYGFTYWGPGTLVTVSA

Reference: patent US20250011413A1 (MCMASTER UNIVERSITY, published 2025)
